In article PMC6768651, “A ubiquitin-like domain controls protein kinase D dimerization and activation by trans-autophosphorylation” (The Journal of Biological Chemistry, 2019):

B1: DKF-1 ULD (DKF-1^1–94) [C. elegans] / itself (parent)
chain: MDGSQGSTDYGDHVVLRYGGTREMVPLIRHEQMLDMLMERARQIVQGFGNLDTRNMYLFRHEYNSPTLLYPITSASQITSGSILEIILVDRTEA
B2: DKF-1 ULD–C1a (DKF-1^1–151) [C. elegans] / itself (parent)
chain: MDGSQGSTDYGDHVVLRYGGTREMVPLIRHEQMLDMLMERARQIVQGFGNLDTRNMYLFRHEYNSPTLLYPITSASQITSGSILEIILVDRTEAAVIPHVVEPESYMRPTFCDFCGEMLTGLMRQGVKCKNCNGNFHKRCSNAARNNCGAP

Experiments:
Experiment in all cases: SEC-MALS (static light scattering)
Conditions in all cases: with itself
itself [1] = variants of: B1
itself [2] = variants of: B1; remark: listed apart in the source
itself [3] = variants of: B2; remark: listed apart in the source
itself [4] = variants of: B2; remark: listed apart in the source

screen value (itself [1])	screen value (itself [2]) [kDa]	screen value (itself [3])	screen value (itself [4]) [kDa]	Variant
1.04	11.3			MDGSQGSTDYGDHVVLRYGGTREMVPLIRHEQMLDMLMERARQIVQGFGNLDTRNMYLERHEYNSPTLLYPITSASQITSGSILEIILVDRTEA [chain 1 F59E]
		1.09	18.7	MDGSQGSTDYGDHVVLRYGGTREMVPLIRHEQMLDMLMERARQIVQGFGNLDTRNMYLERHEYNSPTLLYPITSASQITSGSILEIILVDRTEAAVIPHVVEPESYMRPTFCDFCGEMLTGLMRQGVKCKNCNGNFHKRCSNAARNNCGAP [chain 1 F59E]
